Laboratory results taken from the nanobody polyreactivity screen of Harvey et al. (2022).

Assay: yeast display, Sf9 membrane polyspecificity reagent, FACS + sequencing; frameworks hold sequencing errors
Procedure, shortened: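 A nanobody's polyreactivity label depends on the gate it was sorted from. Yeast display cells were stained with 10% biotinylated, detergent-solubilized Sf9 membrane reagent for 1 hour at 4 °C, enriched on streptavidin microbeads and sorted by FACS. The low and high (top ~1%) gates were set on anti-HA fluorescence for expression and streptavidin fluorescence for reagent binding.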

Sequence | polyreactivity (PSR sort gate)
QVQLVESGGGLVQAGGSLRLSCAASGTTFVHYAMGWYRQAPGKERELVAAISSSGDSTYYADSVKGRFTISRDKAKNTVYLQMNSLKPEDTAVYYCAVRSRTPRAYYYWGQGTQVTVSS | low polyreactivity
QVQLVESGGGIVQAGGSLRLSCAASGRIFGYYAMGWYRQARGKERELVAAITWSGGRTYYADSVKGRFTISRDNAKNTVYLQMNSLKPDDTAVYYCAAVVQGPNRKYNYWGQGTQVTVSS | high polyreactivity
QVQLVESGGGLVQAGGSLRLSCAASGFTFSKYAMGLYRQAPGKERELVAAITRRGSSTYYADSVKGRFTLSRDNAKNTVYLQMNSLKPEDTAVYYCNAPRPNGYLGEDNYWGQGTKVTVSS | high polyreactivity
QVQLVESGGGLVQAVGRLRLSCAASGFTFPWYAMGWYRHAPGKERELVAAISTSGDSTYYADSVKGRFTISRDNAKNTVYLQMNSLKPADTAVYYCAARVVRGRYGYWGQGTQVTVSS | high polyreactivity
QVQLVESWGGLVQAGGSLRLSCAASGIIFAAYAMGWYRQAPGKERELVATITSSGGSTFYADSVKGRFTISRDNAKNTVYLQMNSLKPEDTAVYYCAADTWGLWFWGPLFSKYGYWGQGTQVTVSS | low polyreactivity
QVQLVESGGGLVQAGGSLRLSCAASGRTFVTYAMGWYRQAPGKERELVAGIRRGGSTYYADSVKGRFTISRDNAKNTVYLQMNSLKPDDPAVYDCAKTFYAHRAYTSYTARPYDYWGQGTQVTVSS | high polyreactivity
QVQLVESGGGLVQAGGSLRLSCAASGSTFYPYPMGWYRQAPGKERELVATISSSGGTTSYADSVKGRFTISRDNAKNTVYLQMNSLKPEDTAVYYGAARGYGSLHHVLGHHDSWGQGTQVTVSS | low polyreactivity
QVQLVESGGGLVQAGGSLRLSCAASGNTFRWYAMGWYRQAPGKERELVAAITWSGGSTYYADSVKGRFTISRDNAKNPVYLQMNSLKPEDTAVYYCAARRWAGEYDYWGQGTQVTVSS | low polyreactivity
QVQLVESGGGLVQAGGSLRLSCAASGFTFIYYAMGWYRQARGKERELVAAISRGDSTYYADSVKGRFTISRDNAKNTVYLQMISLKPEDTAVYYCAAASHVRRDHGYWGEGTQVTVSS | low polyreactivity
QVQLVESGGGLVQAGGRLRLSCAASGRIFTRYAMGWYRQAPGKERELVAAINYRGSSTYYADSVKGRFTISRDNAKNTVYLQMNSLKPEDTAVYYCNTYGQTDTYWRYYYWGQGTQVTVSS | high polyreactivity
QVQLVESGGGLVQAGGSLRLSCAASGYTFFYAMGWYRQAPGKERQLVAGISRAGRTKYADSVKGRFTISRDNAKNTVYLQMNSLKPEDTAVYYCAAYARVSSSRFDYWGQGTQVTVSS | high polyreactivity
QVQLVDSGGGLVQAGGSLRLSCAASGRIIWYKGMGWYTQATGKERELVAAINRGTSTYYADSVKGRFTISRDNAKNSVYLQMNSLKPEDTAVYYCAAGVSRWYYYWGQGTQVTVSS | high polyreactivity
PVQLVDSGGGLVQAGGSLRLSCAASGSTFQRNVMGWYRQAPGKERELVAAITWRGTSTYYADSVKGRFTISRDNAKNTVYLQMNSLKPEDTAVYYCAAERTRSGYYYDYWGQGTQVTVSS | high polyreactivity
QVQLVESGGGLVQAGGSLRLSCAASGFTFYQNAMGWYRQAPGKEREFVAAISRRGGSTYYADSVKGRFTISRDNAKNTVYLQMNSLKPEDTAVYYCAADYKRKSDGDYWGQGTQVTVSS | high polyreactivity
QVQLVESGGGLVEAGGSLSLSCAASGSTFYKYSMGLYRQAPGKESELVAAITGSGVSTYYADSVKGRFTMSRDNAKNTVYLQMNSLKPDDTAVYYCNAESRSRPYTSSYDYWGQGTQVTVSS | high polyreactivity
QVQLVESGGGLVQAGGSLRLSCAASGRTLFGNAMGWYRQAPAKERELVAAISRRGGSTSYADSVKGRFTISRDNAKNTVYLQMNSLKPEDTAVYYCASAQGKYTGTHYPYDYWGQGTQVTVSS | low polyreactivity
QVQLVESGGGLVQAGRSLRISCAASGSIFVNNAMGWYRQAPGKERELVAAISLSGGSTYYADSVTGRFTISRDTAKNTVYLQMTSLKPEDTAVYYCATRRSHYGKYDYWGQGTQVTVSS | high polyreactivity
QVQLVESGGGLVQAGGSHRLSCASYGLIFESYVMGWDRQAPGKERELVAAIRSSGGSTYYADSVKGRFTISRDNAKNTVYLQMNCLNPEDTAVYYCAANYYYYLTISWWYAYDYWGQGTQVTVSS | low polyreactivity
QVQLVESGGGLVQAGGSLSLSCAASGSTFDRNAMGWYRQAPGKERELVAGISFSGGSTYYADSVKGRFTISRDNAKNTVYLQMNSLKPEDTAVYYCAASTYQPGAVPFDYWGQGTQVTVSS | low polyreactivity
QVQHVESGGGLVQAGGSLLLSCAASGSIFASYAMGWYRQAPGKEREFVASISRSGGRTYYADSVKGRFTISRDNAKNTVYLQMKSLKPEDTAVYYCAAQPSSYVYYRQPFHYWGQGTQVTVSS | high polyreactivity
QVQLVESGGGLVKAGGSLLLSCAASGSTFRVNFMGWYRKSPGKERELVAAITTSGGSKYYADSVKGRFTITRDNAKNSVFLQMNSEKLDDTAVYFCNTTYPSGWGPETDYWGQGIQVTVSS | low polyreactivity
QVQLVESGGGLVQAGGSLRLSCAASGSTFFRYDMGWYRQAPGKERELVADINYNGGSTYYADSVKGRFTISRDNAKNTVYLQMNSLKPEDTAVYYCAAAYRVRGRTYDSWGQGTQVTVSS | high polyreactivity

Sequence | polyreactivity (PSR sort gate)
QVQLVESGGGLVQAGGSLRLSCAASGFTFKFYAMGWYRPAPGKERELVAAISSGGASTYYADSVKGRFTISRDNAKNTVYLQMNSLKPEDTAVYYFAARSGGPSDGSGYWGQGTEVTVSS | low polyreactivity
QVQLVESGGGLVQAGGSLRLSFAASGSNFYIYAMGWYRQAPGKERELVAAITSGGNTYYVDSVKGRFTISRDNAKNTVYFQMNSLKPEDTAVYYCAAELYDRWSRMDYWGQGTQVTVSS | low polyreactivity
QVQLVESGGGVVQAGGSLRLSCAASGRTYGYNAMGWYRPAPGTERELVAAITKSGVSTYYADSVKGRFTISRDNAKNTVYLQMNSLKPEDTAVYYCAVDSYYYSMDYWGQGTQVTVSS | high polyreactivity
QVQLVESGGGLVQAGASLRLSCAASGRTFGGYAMGWYRQAPGKERQLVAAISSSGTGTSYADSVKGRFTISRDNAKNTVYFEMNSLKPEDTAVYYCAARSSRTVLSIQDDDYWGQGTQVTVSS | low polyreactivity
QVQLVESGGGLVQAGGILRLSCAASGRTLDCNAMGWYRQAPGKERELDAAITVTGSSTYYADSVKGRFTISRDNAKNTVYLQMNSLKPEDTAVYYCAKASGGDVRYSYSYRMDYWGQGTQVTVSS | low polyreactivity
QVQLVESGGGLVQAGGSLRLSCAASGSIYARNAMGWYRQAPGKERELVAAIRYSGGSTYYADSVKGRFTISRDNAKNTVYLQMNSLKPEDTAVYYCAARWGVFGYYYWGQVTQVTVSS | high polyreactivity
QVQLVDSGGGLVQAGGSLRLSCAASGSTFISYAMRWYRPAPGKERELVAAISSSTGRTYYADSVKGRFTISRDNAKNTVYLQMNSLKPEDTAVYYCNAVHRYERVYWGQGTQVTVSS | high polyreactivity
QVQLVESGGRLVKAGGSLRLSCAASGRNFFYYTMAWYRQAPGKERELVATISWRGGSTYYADSVKGRFTFSRDNAKNTDYLLMNSLKPEETAVYYCAARYRCRYDSWGQGTQVTVSS | high polyreactivity
QVQLVESGGRLVQAGGSLRLSCAASGFIFAVYAMGSYRQAPGKECELVAAISRSSGSTYYADSVKGRFTISRHNAKNTVYLQMNSLKPEDTAVYYCAAVFLYRGYAQYDYWGQGTQVTVSS | high polyreactivity
QVQLVESGGGLVQAGGSLRLSCAASGIIFLWYAMGWYRQAPGKERELVAAISRTGSSTYYADSVKGRFTISRDNAKNTVYLQMNSLKPEDTAVYYCAAAYYSKRSWRFDYWGQGTQVTVSS | high polyreactivity
QVQLVESGGGLVQAGGSLRLSCAASGRIFSRNAMGWYRKAPGKERELVATISAGGGRTSYADSVKGRFTISRDNAKNTVYLQMNSLKPEDTADYYCAARGQVGYYWGQGTQVTVSS | high polyreactivity
QVQLVESGGGLVQAGGSLRLSCAASGFTFNNNAMGWYRQAPGKERELVAAISSSGGNTYYADSVKGRFTISRDNAKNTVYLQMNSLKPEDTAVYYCNAGKRQRGEYWGQGTQVTVSS | high polyreactivity
QVQLVESGGGLVQAGGSLRLSCAASGLIFYDNMGWYRQAPGNERELVAAITVSGGATYYADSVKGRFTISRDNAKNTVYLQMNSLKPEDTAVYYCARELLSPTYQRWYYYWGQGTQVTVSS | low polyreactivity
QVQLVESGGGLVQAGGSLRLSCAASGFTFRGYAMGWYRQAPGKERELVAAITSRGGTTYYADSVKGRFTISRDNAKNTVYLQMNSLKPEDTAVYYCATTGGYTRGIGWYNYWGQGTQVTVSS | high polyreactivity
QVQLVESGGGLVQAGGSLRLSCAASGRTFGLNVMGWYRQAPGKERELVAAISRSGGSTYYADSVKGRFTISRDNAKNTVYLQMNSLKPEDTAVYYCAAVSRYYPYGYWGQGTQVTVSS | high polyreactivity
QVQLVESGGGLVQAGGSLRLSCAASGSIFSFNAMGWYRQAPGKERELVAAISWRGASTYYADSVKGRFTISRDNAKNTVYLQMNSLKPEDTAVYYCAAESTFILQYSYIYYDGHYDYWGQGTQVTVSS | low polyreactivity
QVQLVESGGGLVQAGGSLRLSCAASGSIFSANARGWYRQAPGKERELVASITGDGSTNYADSVKGRFTISRDNAKNPGYLQMNSLKPEDTAVYYCAADIGSWYDYWGQGTQVTGSS | low polyreactivity
QVQLVESGGGLVQAGGSLRLSCAASGRTFVSNAMGWYRQAPGKERELVAAISFSGDSTYYADSVKGRFTISRDNAKKTVYLQMNSLKPEDTAVYYCRFYSYWSWLGREYDYWGQGTQVTVSS | low polyreactivity
QVQLVESGGGLVQAGGSLRLSCAASGRTFNGNTMGWYRQAPGKERELVAAISRRGGSTYYADSVKGRFTISRDTAKNTVYLQMNSLKPEVTAVYYCATHSTFGYDYWGQGTQVTVSS | high polyreactivity
QVQLVESGGGLVQAGGSLRLSCAASGFTIGNYAMGWYRQAPGKERELVAAISSSGTSTYYADSVKGRFTISRDIAKNTVYLQMNSLKPEDTAVYYCAAEYIINYTIFEYWGQGTQLTVSS | high polyreactivity
QVQLVESGGGLVKAGGSLRLSCAASGSTFPLYAMGWYRQAPGKEREFVAAIRWIGGSTYYADSVKGRFTISRDNAKNTVYLQMNSLKPEDTAVYFCAADYVVSAFDYWGQGTQVTVSS | low polyreactivity
